Where two headings read alike, the source gives them in different places.
Key:
[1] = biological target: proNS5-HA (proteolytically-processed HA-tagged DENV2 NS5) (dengue virus serotype 2 (DENV2)); assay: co-IP
[2] = biological target: proNS5-HA (proteolytically-processed HA-tagged DENV2 NS5) (dengue virus serotype 2 (DENV2)); assay: co-IP; remark: listed apart in the source

UBR4 (human, endogenous) (from UniProt Q5T4S7 1-5183) (natural protein)
fold UBR4 precipitated against NS5-HA (densitometry) [1]: 2 fold
fold UBR4 precipitated against NS5-HA (densitometry) [2]: 7 fold
